# Results published in publication PMC12183613, “Identification of novel small molecule inhibitors of ETS transcription factors”.
# B1: 3x consensus ETS oligonucleotide (biotinylated) (dsDNA)
# DNA 1: ACCGGAAGTACCGGAAGTACCGGAAGT
# DNA 2: ACTTCCGGTACTTCCGGTACTTCCGGT
# Biological target: ETV6 full-length (UniProt P41212 1-452)
# Assay: pull-down; fragment Fr18 (enhanced binding); Pull-down: 4 C, 30 min, 1 ug poly(dI/dC), 4 mM spermidine; wash in binding buffer 50 mM KCl, 10 mM HEPES pH 7.6, 5 mM MgCl2, 10 mM Tris pH 8, 0.05 mM EDTA, 0.1% Triton X-100, 20% glycerol. SPR: 25 mM HEPES pH 7.5, 100 mM NaCl, 1 mM EDTA, 1 mM beta-mercaptoethanol; NMR same buffer (296 K)
# Conditions: protein: ivt; tags: FLAG; only one strand given
# ETV6 full-length, sequence (P41212 whole entry, the tested form may be a part): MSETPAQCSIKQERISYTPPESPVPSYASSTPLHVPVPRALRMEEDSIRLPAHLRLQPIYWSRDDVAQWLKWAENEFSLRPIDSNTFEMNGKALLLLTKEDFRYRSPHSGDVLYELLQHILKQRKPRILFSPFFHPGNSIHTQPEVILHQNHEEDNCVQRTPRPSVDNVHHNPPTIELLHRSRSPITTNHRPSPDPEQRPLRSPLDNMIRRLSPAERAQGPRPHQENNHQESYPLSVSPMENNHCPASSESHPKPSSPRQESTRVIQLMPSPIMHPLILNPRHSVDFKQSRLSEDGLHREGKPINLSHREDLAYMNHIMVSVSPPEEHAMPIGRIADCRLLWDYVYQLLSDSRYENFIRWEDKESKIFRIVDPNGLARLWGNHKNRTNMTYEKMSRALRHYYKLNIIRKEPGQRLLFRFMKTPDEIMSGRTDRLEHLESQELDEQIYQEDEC
binder,measurement,value
B1,binding result,binds
